Molecular target: serum TGFβ1 of the treated mice (mouse) (UniProt P04202)
Test: cell-based or functional assay

Chain of UniProt P04202 (P04202 279-390 limits assumed): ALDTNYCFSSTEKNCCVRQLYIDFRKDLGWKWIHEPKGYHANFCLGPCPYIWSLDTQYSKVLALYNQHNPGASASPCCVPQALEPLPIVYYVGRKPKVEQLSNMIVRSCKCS

Substance “sTGFbR2-Fc(igg2Ae), fusion of the mouse TGFbR2 extracellular domain with the mouse igg domain (Fc fusion)” has a serum TGFβ1 after administration of the AAV encoding the soluble receptor (FIG. 2, TGFb1 knockdown versus dosage) of less than 95%.
